The source of these data is PMC5747488.

The target of experiment [1] is retinoblastoma protein (pRb), endogenous in ovine OFTu cells (ovine (endogenous in OFTu)).
Experiment [2] addresses ORFV119^Flag expressed by revertant virus OV-IA82-RV119^Flag (orf virus (ORFV) strain OV-IA82). Nature of the experiment: co-IP; OFTu cells infected with Flag-tagged recombinant ORFV (MOI 10), harvested 12 h p.i.; reciprocal IP of total protein extracts (anti-Flag or antibody against the cellular protein), high stringency buffer with 300 mM NaCl, overnight at 4°C, protein G agarose; Western blot. (In general: A western blot detects proteins with antibodies after separation by electrophoresis.)

Experiment [3] deals with retinoblastoma protein (pRb), endogenous in ovine OFTu cells (ovine (endogenous in OFTu)). The experiment is described as above.
For experiment [4], the target named is retinoblastoma protein (pRb), endogenous in human cells (human (endogenous in HEK 293T, HeLa)) (UniProt P06400). The experiment is described as follows: co-IP; HeLa cells transfected with pORFV119^Flag, harvested 12 h post transfection; reciprocal IP (anti-Flag or anti-pRb), high stringency buffer with 300 mM NaCl; Western blot.
For experiment [5] the target is unchanged. The experiment is described as follows: co-IP; HEK 293T cells transfected with pORFV119^Flag, pORFV119^LxGxE-Flag or pORFV113^Flag, harvested 12 h post transfection; reciprocal IP of total protein extracts (anti-Flag, anti-pRb or anti-TRAF2), high stringency buffer with 300 mM NaCl, overnight at 4°C, protein G agarose; Western blot.
Experiment [6] concerns the target ORFV119^Flag (ORFV119-3xFlag fusion protein expressed from plasmid pORFV119^Flag) (orf virus (ORFV) strain OV-IA82). Nature of the experiment: co-IP; HeLa cells transfected with pORFV119^Flag, harvested 12 h post transfection; reciprocal IP (anti-Flag or anti-pRb), high stringency buffer with 300 mM NaCl; Western blot.
Experiment [7] shares this target. Nature of the experiment: co-IP; HEK 293T cells transfected with pORFV119^Flag, pORFV119^LxGxE-Flag or pORFV113^Flag, harvested 12 h post transfection; reciprocal IP of total protein extracts (anti-Flag, anti-pRb or anti-TRAF2), high stringency buffer with 300 mM NaCl, overnight at 4°C, protein G agarose; Western blot.

In the case of “ORFV119^LxGxE-Flag expressed by revertant virus OV-IA82-RV119^LxGxE-Flag (natural protein)”, in experiment [1], the fold increase of phosphorylated IKKα/β (Ser176/180) in OFTu cells infected with OV-IA82-RV119^LxGxE-Flag relative to OV-IA82, Western blot densitometry, 30 min and 1 h p.i. was 27.4 fold; the fold increase of phosphorylated IκBα (Ser32/36) in OFTu cells infected with OV-IA82-RV119^LxGxE-Flag relative to OV-IA82, Western blot densitometry, 30 min and 1 h p.i. is 21.2 fold; the fold increase of phosphorylated NF-κB-p65 (Ser536) in OFTu cells infected with OV-IA82-RV119^LxGxE-Flag relative to OV-IA82, Western blot densitometry, 30 min and 1 h p.i. came to 13.2 fold. Regarding “retinoblastoma protein (pRb), endogenous in ovine OFTu cells (natural protein)”, the percentage co-immunoprecipitated in experiment [2] came out at 8.7%. In the case of “ORFV119^Flag expressed by revertant virus OV-IA82-RV119^Flag (natural protein)”, the percentage co-immunoprecipitated in experiment [3] was 18.5%. As for “ORFV119^Flag (ORFV119-3xFlag fusion protein expressed from plasmid pORFV119^Flag) (natural protein)”, the percentage co-immunoprecipitated is 38.7% in experiment [4] and 28.4% in experiment [5].

B1: retinoblastoma protein (pRb), endogenous in human cells (natural protein)
chain: MPPKTPRKTAATAAAAAAEPPAPPPPPPPEEDPEQDSGPEDLPLVRLEFEETEEPDFTALCQKLKIPDHVRERAWLTWEKVSSVDGVLGGYIQKKKELWGICIFIAAVDLDEMSFTFTELQKNIEISVHKFFNLLKEIDTSTKVDNAMSRLLKKYDVLFALFSKLERTCELIYLTQPSSSISTEINSALVLKVSWITFLLAKGEVLQMEDDLVISFQLMLCVLDYFIKLSPPMLLKEPYKTAVIPINGSPRTPRRGQNRSARIAKQLENDTRIIEVLCKEHECNIDEVKNVYFKNFIPFMNSLGLVTSNGLPEVENLSKRYEEIYLKNKDLDARLFLDHDKTLQTDSIDSFETQRTPRKSNLDEEVNVIPPHTPVRTVMNTIQQLMMILNSASDQPSENLISYFNNCTVNPKESILKRVKDIGYIFKEKFAKAVGQGCVEIGSQRYKLGVRLYYRVMESMLKSEEERLSIQNFSKLLNDNIFHMSLLACALEVVMATYSRSTSQNLDSGTDLSFPWILNVLNLKAFDFYKVIESFIKAEGNLTREMIKHLERCEHRIMESLAWLSDSPLFDLIKQSKDREGPTDHLESACPLNLPLQNNHTAADMYLSPVRSPKKKGSTTRVNSTANAETQATSAFQTQKPLKSTSLSLFYKKVYRLAYLRLNTLCERLLSEHPELEHIIWTLFQHTLQNEYELMRDRHLDQIMMCSMYGICKVKNIDLKFKIIVTAYKDLPHAVQETFKRVLIKEEEYDSIIVFYNSVFMQRLKTNILQYASTRPPTLSPIPHIPRSPYKFPSSPLRIPGGNIYISPLKSPYKISEGLPTPTKMTPRSRILVSIGESFGTSEKFQKINQMVCNSDRVLKRSAEGSNPPKPLKKLRFDIEGSDEADGSKHLPGESKFQQKLAEMTSTRTRMQKQKMNDSMDTSNKEEK
As to B1, the percentage co-immunoprecipitated in experiment [6] is 21.5%; in experiment [7], 16.7%.
